The DeepSol protein solubility set

Assay: soluble on expression in E. coli; label from the status in PepcDB or PDB records
For “MTLALLGSSLPAASLQAGETGISVSASSTVTYNPDTAEFTTTVESTDKDAAKAAAKVATLWSSLQQALRKVGISSADASSTSYTVSPEWEWNSANGKREFKGYKARHVVRVVVRDLGKLGGAIDAVVGAGSGTVDGLSYSSSRFESLRTQALENAVKSAKHDAEVMARAAGGRLGQPLELQYGQPQSDYPVMRFAMAEGFKAAPAPTDVEPGEQKLTVSVSSRWQFVSGSGKLEHHHHHH”, the “soluble on expression in E. coli” value was “not soluble”. With “MLKFKNRIVEKRVKGAEKASFGGPVLLYRTLRKVTKLYKYITDKKSFPILVTSLFALFNPNSVLAADKYSNFEELKENESPLSYNILTTDVDRRVLILAPHGGGIEGGTSELARELSKSYSAYLFEGLRIPGASELHITSTNFDEPQALDLLSKHDLTISIHGYASSKKHTLVGGTDREKAAKITSLLTDAGFSAELLSEDSRLAGTNEQNIANKNSTGMSIQLEISTEQRREMFNTFTLAGRNGTQNQVFYDYIAVLTKFINENVYCMAGVAPLEHHHHHH” the “soluble on expression in E. coli” value was “not soluble”. In the case of “MAEKFIKHTGLVVPLDAANVDTDAIIPKQFLQKVTRTGFGAHLFNDWRFLDEKGQQPNPDFVLNFSQYQGASILLARENFGCGSSREHAPWALTDYGFKVVIAPSFADIFYGNSFNNQLLPVKLSDAEVDELFALVKANPGIHFDVDLEAQEVKAGEKTYRFTIDAFRRHCMMNGLDSIGLTLQHDDAIAAYEAKQPAFMR”, the “soluble on expression in E. coli” value is reported as “not soluble”. In the case of “MGSDKIHHHHHHMRHFIYQDEKSHKFRAVEQQGNELHISWGKVGTKGQSQIKSFSDAAAAAKAELKLIAEKVKKGYVEQAKDNSLQPSQTVTGSLKVADLSTIIQEQPSFVAETRAPDKNTDAVLPWLAKDIAVVFPPEVVHTTLSHRRFPGVPVQQADKLPQLRRLACSVSQRDNKTATFDFSACSLEWQNTVAQAISQIDGLKTTQLPSPVMAVLTALEMKCTRYKVREDVMDQIVQEGGLEYATDVIIHLQQIDIEWDYANNVIIILPSGIAPSYLEQYSRFE”, the “soluble on expression in E. coli” value is reported as “not soluble”. For “TSPLYTGAVPRANRIVQQLVEAGADLANIRTMFRNMLRGEEMILSRAEQNVFLQHFPDMLPCGIDRNSELAIALREALRRADSQQAARAPARTPPRSSVRTPERSPAPRTATESSSGSNQRSLLGRFAGLMTSNQRRPSSASNASTSQRPVDRNPPRINLMPTGANRVAMRNRGNNEADAALQALAQNGINMEDLRAALEAYIVWLRPIPLDIANALEGVGITPRFDNPEEAKVDNPLMNLSSALKRRLDA”, the “soluble on expression in E. coli” value was “not soluble”. For “MGSSHHHHHHSSGLEVLFQGPAMATKKVHIISHSHWDREWYMAYEQHHMRLINLIDDLLEVFQTDPDFHSFHLDGQTIILDDYLKVRPEREPEIRQAIASGKLRIGPFYILQDDFLTSSESNVRNMLIGKEDCDRWGASVPLGYFPDTFGNMGQTPQLMLKAGLQAAAFGRGIRPTGFNNQVDTSEKYSSQFSEISWQGPDNSRILGLLFANWYSNGNEIPTTEAEARLFWDKKLADAERFASTKHLLMMNGCDHQPVQLDVTKAIALANQLYPDYEFVHSCFEDYLADLADDLPENLSTVQGEITSQETDGWYTLANTASARIYLKQANTRVSRQLENITEPLAAMAYEVTSTYPHDQLRYAWKTLMQNHPHDSICGCSVDSVHREMMTRFEKAYEVGHYLAKEAAKQIADAIDTRDFPMDSQPFVLFNTSGHSKTSVAELSLTWKKYHFGQRFPKEVYQEAQEYLARLSQSFQIIDTSGQVRPEAEILGTSIAFDYDLPKRSFREPYFAIKVRLRLPITLPAMSWKTLALKLGNETTPSETVSLYDDSNQCLENGFLKVMIQTDGRLTITDKQSGLIYQDLLRFEDCGDIGNEYISRQPNHDQPFYADQGTIKLNIISNTAQVAELEIQQTFAIPISADKLLQAEMEAVIDITERQARRSQEKAELTLTTLIRMEKNNPRLQFTTRFDNQMTNHRLRVLFPTHLKTDHHLADSIFETVKRPNHPDATFWKNPSNPQHQECFVSLFDGENGVTIGNYGLNEYEILPDTNTIAITLLRSVGEMGDWGYFPTPEAQCLGKHSLSYSFESITKQTQFASYWRAQEGQVPVITTQTNQHEGTLAAEYSYLTGTNDQVALTAFKRRLADNALITRSYNLSNDKTCDFSLSLPNYNAKVTNLLEKDSKQSTPSQLGKAEILTLAWKKQ”, the “soluble on expression in E. coli” value was “soluble”. In the case of “METETDDSETSLNDSFGNKDGLELLEYERATLAKTLPASVLFVVANGLGLERLFLEHLILFSDRRLLALVLNTNEHDESYFVSKLKEHNVECDPKVINSEVSIKDRQSIYLEGGVQFCSSRVLLVDLLQNRIPTDRIAAIFVYRAHQTLNAFQDSFILRLYREKKPDGTVKAFTDFPNSLSSLGQLQRLVDRLYIRHVELMPRFSSIIESELNRYQLKTAIFSVDVPTPLRRVHRTIIEFIKVCVRDLRTCSTSGKQTDEQNEEMIHVPWAATRLEKRLHDRRGHISEKQQRLLNDVASLREILQLSENMDVATVLSRLQVLKNDRTVLEEHSGWLLSPSFNRIMEDLLTIAGVTNGKADYKKFATPAKWTVLSEILREIKMLPVEKKDRGNDSPSVLVITSSEDLSRQVTDVVRYGINKMKWMTWRQLGYKSTQEMPEDEPLWDPDTISQLMRSSVDGESKSEVIANVQKTQKTTARAAQKRRKHAEELSGFSSDHRVQTNLIQFGILQYKRRKSGNEASTSQETTEWEVKEEMEEIEEITKNIGDLEAELVVSTTRERERYTLLKLLETKKPRAIVLYTMSLQTLRQIEIYRSTNPNRSLHVYWLQYTESTEESRYLESINRETMSFELLIREQGTLLISREFNVDREDAPRLKISTRDGGGARRDGAVDPRDQMDPEEELERPKIIVDMREFNSELPTVLYTKGYNVVATTIEIGDYILSPNIAIERKALDDLTQSLQSGRVFKQIEQMLEHYDCTVLLIESNRKFETKIVNGGPFQGELSRHCREIRSIFCSLIWANPKMRCVWTISPTNSAEFFSELKLSAPEPDVDRAISLKADQVECSSQELTDSEASTSTKAKKGKKWKPNPTVIRTLTQIFGIKASEAHNLLANSSIKTLADLFSLNITASHLSDFIPSTSADFIKDLSTFNFGRK”, the “soluble on expression in E. coli” value is reported as “not soluble”. With “MGSDKIHHHHHHMSEDIFDAIIVGAGLAGSVAALVLAREGAQVLVIERGNSAGAKNVTGGRLYAHSLEHIIPGFADSAPVERLITHEKLAFMTEKSAMTMDYCNGDETSPSQRSYSVLRSKFDAWLMEQAEEAGAQLITGIRVDNLVQRDGKVVGVEADGDVIEAKTVILADGVNSILAEKLGMAKRVKPTDVAVGVKELIELPKSVIEDRFQLQGNQGAACLFAGSPTDGLMGGGFLYTNENTLSLGLVCGLHHLHDAKKSVPQMLEDFKQHPAVAPLIAGGKLVEYSAHVVPEAGINMLPELVGDGVLIAGDAAGMCMNLGFTIRGMDLAIAAGEAAAKTVLSAMKSDDFSKQKLAEYRQHLESGPLRDMRMYQKLPAFLDNPRMFSGYPELAVGVARDLFTIDGSAPELMRKKILRHGKKVGFINLIKDGMKGVTVL” the “soluble on expression in E. coli” value was “not soluble”. In the case of “MSRTIWLVRHGQRVDNVDKKWKANNDAKWDDPELTLRGKQQAHEVGKHFANMNIEAIVVSPFTRCIETAAQIVAMMENKAKICVEPGLMEPLYLCKNPPTIPSMDKIKEYSTQVDESYKPVFEKLPISEISLLFSEISLLFPMVLHWQTSTLS”, the “soluble on expression in E. coli” value is reported as “not soluble”. For “PLAIVTSPEIKSPGDLKGKRLMLSEVNIDSANFTHMLQGFGLSMKDIQILSTSFNIHDFIDGKVDAYSIFLTNELFDLQRLGVRYNILDPSNYGVELYDENLFGAKEFVLKNPTLVKRFIDASNRGWQYALDHPEEIVDLILERYNTQ”, the “soluble on expression in E. coli” value was “not soluble”. For “MSLSKIKEIRTKVYQWNGKTVPPQNNFCTNASDLLYEKSDAMGSFRFHEWLICEVETNDGHIGIGNAALAPQLVKNTIDTYLKPLVVGEDPFDYAYIWEKMYRKTLNWGRRGLGMVAISAIDIAIWDVLGKITNKPVFKLLGGRTKEKIPVYASKLYAQPLKQLQEEAEKYKNEGFKMFKSRMGWGPKDGSEGMKKNLQLLEAVREVIGEDTDLMVDCYMGWNLDYTKRMLPKMAKFNLRWLEEPVHADDIHGYAELNNMNIIPISGGEHEFNLFGFKQLLELNAVSYIQYDNNRVGGFTVAQKINALAEAYQIPVVPHAGQMHNYHLTMSNFNCPISEFFPVHEVEVGNELFYYIFEGDPAPVDGMIDLDDNTPGLGLKVTDKYKSDFKIIEEGHHHHHH”, the “soluble on expression in E. coli” value was “soluble”. With “MYQDLIRNELNEAAETLANFLKDDANIHAIQRAAVLLADSFKAGGKVLSCGNGGSHCDAMHFAEELTGRYRENRPGYPAIAISDVSHISCVSNDFGYDYIFSRYVEAVGREGDVLLGISTSGNSGNVIKAIAAAREKGMKVITLTGKDGGKMAGTADIEIRVPHFGYADRIQEIHIKVIHILIQLIEKEMVK” the “soluble on expression in E. coli” value was “not soluble”. In the case of “MNVRITKKMVRELLEVLDEIVEEIRQEEKEKYPYAEWERKREIVKERLRKLPKYVREAVSAIRIEKRVGRPKKVDLEKRVMLFLFARLINKSNRDVEELLELFEPLFGIRVSYKTIERLYSDEEVRMALHNLFILLLKDEGVSGEFSGDGTGYSLAITKHYRSNPKKKGKDFRYVFRIIDLETGMYVGFGYSAKSEKDAFEKAMKMLKSMGVKVNSISLDKYYSTRKTLRMFDAETSVYVIPKRNLSRIGFDWLRVIERIVEMPYRFLKRYFKRNLSEAGFSADKRRFGWLIRQRREDRREMALFAVGLWHNIFAVRVMR”, the “soluble on expression in E. coli” value is reported as “not soluble”. For “MSQARPATVLGAMEMGRRMDVTSSSASVRAFLQRGHTEIDTAFVYANGQSETILGDLGLGLGRSGCKVKIATKAAPMFGKTLKPADVRFQLETSLKRLQCPRVDLFYLHFPDHGTPIEETLQACHQLHQEGKFVELGLSNYVSWEVAEICTLCKKNGWIMPTVYQGMYNAITRQVETELFPCLRHFGLRFYAFNPLAGGLLTGRYKYQDKDGKNPESRFFGNPFSQLYMDRDWKEEHFNGIALVEKALKTTYGPTAPSMISAAVRWMYHHSQLKGTQGDAVILGMSSLEQLEQNLALVEEGPLEPAVVDAFDQAWNLVAHECPNYFR”, the “soluble on expression in E. coli” value was “soluble”. For “MFEKEKEGLIEVQNVYEIAPEDGTIIGMATEEEMEIAAELELQYYAHSRLLEANIQLDGSSYKELLQEFQEYERKSMSFWRAIHKRLAVPWAWVLRIDVANGPIYVSNGSSYYEEIDDEEDYE”, the “soluble on expression in E. coli” value was “not soluble”. In the case of “MTAMPRIAFLASPAEPAVAARARLVQRYGDHALHDADIVCALGGDGFMLQTLHRHGAADKPVFGMKLGSVGFLMNQYRDDEDDLLARLQRAEPAHLRPLEMLVQTESGTSAGSLAYNEVSLLRQTRQAAHLSVDLNGQTRIAELIGDGVMVATPAGSTAYNYSAHGPILPLGSHTLALTPIAPYRPRRWRGAILKADTEVRFRVLDPYKRPVSVTADSHEIRDVVEVTIRESTERRVTLLFDPEHNLEERIFSEQFAVLEHHHHHH”, the “soluble on expression in E. coli” value is reported as “not soluble”. In the case of “FPSQDQYLAGLLETPEQKIRAYVLFAHCFTCGKDVAAASRISRFLVQHGFAVFRFDFTGLGNSDGDFANTNFSSNTEDLVSAAYFLEQNYEAPQLLIGHSLGGAAVLAMASQLPKVKGVVTIGAPYEASHVIHNFDAHLEKIDQSGSAKVSLGSREFTIKKQFLDDLRNQTTEHIQHLNKALLVLHSPIDLTVDISDAEKIYKAAKHPKSFVSLDTADHLLSKSIDSEYVAQTISGWASRYIP”, the “soluble on expression in E. coli” value is reported as “not soluble”. For “MGEAETPSFEMTWSSTTSSGYCSQEDSDSELEQYFTARTSLVRRPRRDQDEAVERETPDLSQAETEQKIKDYNGQINSNLFMSLNKDGSYTGFIKVQLKLVRPVSVPSSKKPPSLQDARRGTGRSTAVKRRTSFYLPKDAIKHLHVLSRTRAREVIEALLRKFMVVDDPRKFALFERTERHGQVYLRKLSDDEQPLKLRLLAGPSEKALSFVLKENDSGEVNWDAFSMPELHNFLRILQREEEEHLRQILQKYSRCRQKIQEALHACPLG”, the “soluble on expression in E. coli” value was “soluble”.
